Data as given in patent US20080160018A1.

Columns and labels:
[1] = target: gH glycoprotein of cytomegalovirus on CMV-infected HEL cells (cytomegalovirus (CMV)) (UniProt P12824); assay: immunostaining of CMV-infected HEL cells, 2-fold dilutions, HRP secondary
[2] = target: human IL-2 receptor (p55 Tac protein) on HUT-102 cells (human) (UniProt P01589); assay: cell-based or functional assay
[3] = target: human IL-2 receptor (p55 Tac protein) on HUT-102 cells (human) (UniProt P01589); assay: competition with radioiodinated mouse anti-Tac on HUT-102 cells

human IL-2 receptor (p55 Tac protein) on HUT-102 cells (human), sequence (P01589 22-272): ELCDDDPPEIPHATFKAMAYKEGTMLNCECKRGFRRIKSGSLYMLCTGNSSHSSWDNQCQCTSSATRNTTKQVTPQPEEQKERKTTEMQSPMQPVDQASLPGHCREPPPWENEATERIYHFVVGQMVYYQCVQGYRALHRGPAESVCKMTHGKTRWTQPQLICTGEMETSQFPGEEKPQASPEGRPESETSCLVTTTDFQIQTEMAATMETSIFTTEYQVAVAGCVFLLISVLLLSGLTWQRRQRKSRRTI

B1: mouse CMV5 antibody (antibody, V domains shown)
VH: EVQLQQSGPELVKPGASMKISCKASVYSFTGYTMNWVKQSHGQNLEWIGLINPYNGGTSYNQKFKGKATLTVDKSSNTAYMELLSLTSADSAVYYCTRRGFRDYSMDYWGQGTSVTVSS
VL: DIVLTQSPATLSVTPGDSVSLSCRASQSISNNLHWYQQKSHESPRLLIKYASQSISGIPSRFSGSGSGTDFTLSVNGVETEDFGMYFCQQSNSWPHTFGGGTKLEIK
[1]
  least amount of antibody that produced a detectable precipitate: 63 ng/mL

B2: mouse anti-Tac antibody (antibody, V domains shown)
VH: QVQLQQSGAELAKPGASVKMSCKASGYTFTSYRMHWVKQRPGQGLEWIGYINPSTGYTEYNQKFKDKATLTADKSSSTAYMQLSSLTFEDSAVYYCARGGGVFDYWGQGTTLTVSS
VL: QIVLTQSPAIMSASPGEKVTITCSASSSISYMHWFQQKPGTSPKLWIYTTSNLASGVPARFSGSGSGTSYSLTISRMEAEDAATYYCHQRSTYPLTFGSGTKLELK
[2]
  Percent 51Cr release after ADCC, effector:target ratio 30:1: 4%
  Percent 51Cr release after ADCC, effector:target ratio 100:1: < 1%

B3: CDR-only humanized anti-Tac antibody (antibody, V domains shown)
VH: QVQLVQSGAEVKKPGSSVKVSCKASGGTFSSYRMHWVRQAPGQGLEWMGYINPSTGYTEYNQKFKDRVTITADESTNTAYMELSSLRSEDTAFYFCAGGGGVFDYEYNGGLVTVSS
VL: DIQMTQSPSTLSASVGDRVTITCSASSSISYMHWYQQKPGKAPKLLMYTTSNLASGVPSRFIGSGSGTEFTLTISSLQPDDFATYYCHQRSTYPLTFGQGTKVEVK
[3]
  fold reduction of binding affinity compared to the PDL humanized anti-Tac antibody: > 100 fold
